The values below come from US20150203579A1 (Regeneron, published 2015).

Usually Kd stands for a measure of binding affinity in units of concentration. A word on the koff: it is the rate constant with which the complex falls apart. As a reminder, the kon is the rate constant with which the complex forms. Usually t½ stands for how long it takes for the measured level to halve.

Residue numbers refer to the chain shown, from its start. Names and notes keep the numbering of the source.

To fix the notation:
T1: recombinant cynomolgus monkey PD-1 expressed with a C-terminal myc-myc-hexahistidine tag (cynomolgus monkey (Macaca fascicularis))
T1 construct: monomeric; also called MfPD-1-MMH
T1 chain: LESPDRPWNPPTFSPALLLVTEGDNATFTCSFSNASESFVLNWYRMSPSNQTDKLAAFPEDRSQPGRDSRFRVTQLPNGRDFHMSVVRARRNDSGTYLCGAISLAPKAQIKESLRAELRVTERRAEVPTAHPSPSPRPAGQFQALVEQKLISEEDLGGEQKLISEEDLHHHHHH

B1: H4xH9048P2 (antibody, V domains shown)
VH: QVQLVQSGAEVKRPGSSVKVSCKVSGVTFRNFAIIWVRQAPGQGLEWMGGIIPFFSAANYAQSFQGRVTITPDESTSTAFMELASLRSEDTAVYYCAREGERGHTYGFDYWGQGTLVTVSS
VL: not shown
notes: Human IgG4 Fc with 2 or more amino acid changes (H4xH)
B2: H4xH9045P (antibody, V domains shown)
VH: EVQLVESGGGLVQPGRSLRLSCAASGFTFDDYDMHWVRQAPGKGLEWVSGSGWNRGSLGYADSVKGRFTISRDNAKKSLYLQMNSVRVEDTALYYCAKGFVVVSAAYFDYWGQGTLVTVSS
VL: not shown
notes: Human IgG4 Fc with 2 or more amino acid changes (H4xH); also called H4xH9045P2
B3: H1M7799N (antibody, mouse IgG1, V domains shown)
VH: EVQLVESGGGLVQPGGSLRLSCAASGFTVSNNYMSWVRQAPGKGLEWVSVIYSGGFTYYTDSVKGRFTISRHNSKNTLYLQMNSLRAEDTAVYYCARYYYDTSDYWTFFDYWGQGTLVTVSS
VL: EIVMTQSPATLSVSPGERATLSCRASQSVSSNLAWYQQKPGQAPRLLIYGASTRATGIPARFSGSGSGTEFTLTISSLQSGDFAVYYCQQYNNWPLTFGGGTKVEIN
notes: Human variable regions, mouse IgG1 Fc
B4: H1M7800N (antibody, mouse IgG1, V domains shown)
VH: B3 VH
VL: B3 VL
notes: as for B3
B5: H4H9019P (antibody, human IgG4, V domains shown)
VH: EVQLVESGGGVVRPGGSLRLSCAASGFTFDDYGMSWVRQVPGKGLEWVSGISWNDGKTVYAESVKGRFIISRDNAKNSLYLEMNSLRAEDTALYYCARDWQYLIERYFDYWGQGTLVTVSS
VL: not shown
notes: Fully human; H4H prefix (human IgG4 Fc)
B6: H4xH9035P (antibody, V domains shown)
VH: B5 VH with G10R, V40L, S49A, Y80H, E105D, Y110F
VL: not shown
notes: Human IgG4 Fc with 2 or more amino acid changes (H4xH); also called H4xH9035P2
B7: H4xH9037P (antibody, V domains shown)
VH: EVQLVESGGGLVQPGGSLRLSCAASGFTFDDYAMHWVRQAPGKGLEWVSGIGWSSGSIGYADSVKGRFTISRDNAKNSLYLQMDSLRPEDSALYYCAKAYTFMITLYFDYWGQGTLVTVSS
VL: not shown
notes: Human IgG4 Fc with 2 or more amino acid changes (H4xH); also called H4xH9037P2
B8: H4xH9119P2 (antibody, V domains shown)
VH: EVQLVESGGGLVQPGRSLRLSCAASGFTFEDYAMHWVRQAPGKGLEWVSGIGWSNVKIGYADSVKGRFTISRDNVRNSLYLQMNSLRTEDTAFYYCVKAYTSMLTLYFDYWGQGTLVTVSS
VL: not shown
notes: as for B1
B9: H4xH9034P (antibody, V domains shown)
VH: EVQLVESGGGVVRPGGSLRLSCTASGFTFDDYGMSWVRQAPGKGLEWISGIGWTGGRSSYADSVRGRFTISRDNAKNSLYLQMNSLGAEDTALYYCARDRQWLVQWYFDYWGQGTLVTVSS
VL: not shown
notes: Human IgG4 Fc with 2 or more amino acid changes as disclosed in US20100331527 (H4xH); also called H4xH9034P2

The first test deals with T2, recombinant human PD-1 expressed with a C-terminal myc-myc-hexahistidine tag (human).
T2 construct: monomeric; also called hPD-1-MMH; human PD-1-MMH
Nature of the test: SPR, mAb captured, 37C. For orientation: SPR reads the build-up and loss of mass on a sensor chip optically.
Turning to B1, the Kd turned out to be 23.2 nM, the koff worked out at 0.0086 s⁻¹, the kon was determined as 370000 M⁻¹ s⁻¹ and the t½ turned out to be 1.3 min.
Take B2: the dissociation constant Kd came out at 662 nM, the koff stood at 0.0532 s⁻¹, the kon was determined as 80400 M⁻¹ s⁻¹ and the t½ amounted to 0.2 min.
The corresponding values for B3 are 536 nM, 0.0425 s⁻¹, 79400 M⁻¹ s⁻¹ and 0.3 min.
For B4 the same measures were 510 nM, 0.0399 s⁻¹, 78300 M⁻¹ s⁻¹ and 0.3 min.
For the molecule B5, the Kd amounted to 453 nM and the t½ was found to be 2.1 min.
As to B6, the dissociation constant (Kd) was 14.3 nM, the koff worked out at 0.00426 s⁻¹, the kon was found to be 298000 M⁻¹ s⁻¹ and the t½ was determined as 2.7 min.
For B7 the same measures were 29.5 nM, 0.00668 s⁻¹, 226000 M⁻¹ s⁻¹ and 1.7 min.
For B8 the same measures were 43.5 nM, 0.0104 s⁻¹, 240000 M⁻¹ s⁻¹ and 1.1 min.
For B9 the same measures were 40.2 nM, 0.0112 s⁻¹, 279000 M⁻¹ s⁻¹ and 1 min.

The target in the next test is T3, human PD-1 dimer (human PD-1-mFc or human PD-1-hFc) (human, UniProt Q15116 25-170).
T3 construct: also called hPD-1-mFc; hPD1-hFc
T3 sequence (Q15116 25-170 C93S): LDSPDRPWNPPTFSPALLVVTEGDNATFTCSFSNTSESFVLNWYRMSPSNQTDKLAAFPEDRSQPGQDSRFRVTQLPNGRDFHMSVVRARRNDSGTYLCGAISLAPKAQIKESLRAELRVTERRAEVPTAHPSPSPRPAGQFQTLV
Nature of the test: SPR, mAb captured, 37C.
Regarding B1, the Kd amounted to 3.05 nM, the koff was 0.0011 s⁻¹, the kon turned out to be 361000 M⁻¹ s⁻¹ and the t½ came out at 10 min.
The corresponding values for B2 are 5.13 nM, 0.0011 s⁻¹, 214000 M⁻¹ s⁻¹ and 11 min.
The corresponding values for B3 are 0.411 nM, 0.000181 s⁻¹, 441000 M⁻¹ s⁻¹ and 64 min.
For B4 the same measures were 0.45 nM, 0.000181 s⁻¹, 400000 M⁻¹ s⁻¹ and 64 min.
Molecule B5 came in with a Kd of 2.71 nM and a t½ of 59 min.
Take B6: the Kd was found to be 1.75 nM, the koff was determined as 0.000554 s⁻¹, the kon was determined as 316000 M⁻¹ s⁻¹ and the t½ turned out to be 21 min.
The corresponding values for B7 are 3.5 nM, 0.000921 s⁻¹, 263000 M⁻¹ s⁻¹ and 13 min.
As to B8, the Kd worked out at 3.8 nM, the koff stood at 0.000909 s⁻¹, the kon turned out to be 240000 M⁻¹ s⁻¹ and the t½ was 13 min.
As to B9, the Kd came out at 2.09 nM, the off-rate constant (koff) was 0.00063 s⁻¹, the kon amounted to 302000 M⁻¹ s⁻¹ and the t½ was 18 min.

Another test concerns the target T1, recombinant cynomolgus monkey PD-1 …. Nature of the test: SPR, mAb captured, 25C.
As to B1, the Kd is 7 nM, the koff was 0.000897 s⁻¹, the kon was 128000 M⁻¹ s⁻¹ and the t½ amounted to 13 min.
Regarding B2, the Kd came out at 113 nM, the koff stood at 0.00705 s⁻¹, the kon turned out to be 62500 M⁻¹ s⁻¹ and the t½ was determined as 1.6 min.
The corresponding values for B3 are 224 nM, 0.013 s⁻¹, 57800 M⁻¹ s⁻¹ and 0.9 min.
The corresponding values for B4 are 176 nM, 0.0104 s⁻¹, 58900 M⁻¹ s⁻¹ and 1.1 min.
On to B5, for which the Kd is 42.9 nM.
With B6, the Kd came out at 4.64 nM, the koff amounted to 0.000434 s⁻¹, the kon stood at 93600 M⁻¹ s⁻¹ and the t½ stood at 27 min.
The corresponding values for B7 are 13.1 nM, 0.000915 s⁻¹, 69900 M⁻¹ s⁻¹ and 13 min.
The corresponding values for B8 are 22.2 nM, 0.00166 s⁻¹, 75000 M⁻¹ s⁻¹ and 6.9 min.
The corresponding values for B9 are 28 nM, 0.00269 s⁻¹, 96100 M⁻¹ s⁻¹ and 4.3 min.

In another test the target is T3, human PD-1 dimer (human PD-1-mFc or …). Nature of the test: SPR, mAb captured, 25C.
The molecule B1 had a Kd of 0.798 nM, an off-rate constant (koff) of 0.000188 s⁻¹, a kon of 236000 M⁻¹ s⁻¹ and a t½ of 61 min.
The corresponding values for B2 are 1.75 nM, 0.00016 s⁻¹, 91300 M⁻¹ s⁻¹ and 72 min.
For B3 the same measures were 0.36 nM, 8.55e-05 s⁻¹, 238000 M⁻¹ s⁻¹ and 135 min.
The corresponding values for B4 are 0.509 nM, 7.72e-05 s⁻¹, 152000 M⁻¹ s⁻¹ and 150 min.
B5 had a Kd of 1.97 nM and a t½ of 134 min.
Consider B6, for which the Kd came to 0.513 nM, the koff turned out to be 0.000103 s⁻¹, the kon was 201000 M⁻¹ s⁻¹ and the t½ worked out at 112 min.
Turning to B7, binding was put at a Kd of 0.862 nM, the koff stood at 0.000129 s⁻¹, the kon was 150000 M⁻¹ s⁻¹ and the t½ turned out to be 89 min.
For B8 the same measures were 0.992 nM, 0.000162 s⁻¹, 163000 M⁻¹ s⁻¹ and 71 min.
Regarding B9, the Kd stood at 0.701 nM, the koff was 0.000151 s⁻¹, the kon amounted to 215000 M⁻¹ s⁻¹ and the t½ amounted to 77 min.

A further test deals with T1, recombinant cynomolgus monkey PD-1 …. Nature of the test: SPR, mAb captured, 37C.
Consider B1, for which the Kd was determined as 16.8 nM, the koff came out at 0.00697 s⁻¹, the kon was 415000 M⁻¹ s⁻¹ and the t½ stood at 1.7 min.
For B2 the same measures were 7540 nM, 0.105 s⁻¹, 14000 M⁻¹ s⁻¹ and 0.1 min.
For B3 the same measures were 530 nM, 0.0467 s⁻¹, 88000 M⁻¹ s⁻¹ and 0.2 min.
For B4 the same measures were 527 nM, 0.0443 s⁻¹, 84000 M⁻¹ s⁻¹ and 0.3 min.
In the case of B5, the dissociation constant (Kd) was determined as 356 nM and the t½ is 1.5 min.
As to B6, the Kd turned out to be 14 nM, the koff came out at 0.00429 s⁻¹, the kon is 306000 M⁻¹ s⁻¹ and the t½ was 2.7 min.
For B7 the same measures were 39.7 nM, 0.0088 s⁻¹, 222000 M⁻¹ s⁻¹ and 1.3 min.
For the molecule B8, the Kd worked out at 51.4 nM, the koff was 0.0123 s⁻¹, the kon amounted to 240000 M⁻¹ s⁻¹ and the t½ turned out to be 0.9 min.
For B9, the Kd amounted to 87.3 nM, the koff is 0.0247 s⁻¹, the kon is 283000 M⁻¹ s⁻¹ and the t½ amounted to 0.5 min.
